B1: Receptor tyrosine-protein kinase erbB-4 (Mus musculus), Q61527 (parent)
chain: MKLATGLWVWGSLLMAAGTVQPSASQSVCAGTENKLSSLSDLEQQYRALRKYYENCEVVMGNLEITSIEHNRDLSFLRSIREVTGYVLVALNQFRYLPLENLRIIRGTKLYEDRYALAIFLNYRKDGNFGLQELGLKNLTEILNGGVYVDQNKFLCYADTIHWQDIVRNPWPSNMTLVSTNGSSGCGRCHKSCTGRCWGPTENHCQTLTRTVCAEQCDGRCYGPYVSDCCHRECAGGCSGPKDTDCFACMNFNDSGACVTQCPQTFVYNPTTFQLEHNFNAKYTYGAFCVKKCPHNFVVDSSSCVRACPSSKMEVEENGIKMCKPCTDICPKACDGIGTGSLMSAQTVDSSNIDKFINCTKINGNLIFLVTGIHGDPYNAIDAIDPEKLNVFRTVREITGFLNIQSWPPNMTDFSVFSNLVTIGGRVLYSGLSLLILKQQGITSLQFQSLKEISAGNIYITDNSNLCYYHTINWTTLFSTINQRIVIRDNRRAENCTAEGMVCNHLCSNDGCWGPGPDQCLSCRRFSRGKICIESCNLYDGEFREFENGSICVECDSQCEKMEDGLLTCHGPGPDNCTKCSHFKDGPNCVEKCPDGLQGANSFIFKYADQDRECHPCHPNCTQGCNGPTSHDCIYYPWTGHSTLPQHARTPLIAAGVIGGLFILVIMALTFAVYVRRKSIKKKRALRRFLETELVEPLTPSGTAPNQAQLRILKETELKRVKVLGSGAFGTVYKGIWVPEGETVKIPVAIKILNETTGPKANVEFMDEALIMASMDHPHLVRLLGVCLSPTIQLVTQLMPHGCLLDYVHEHKDNIGSQLLLNWCVQIAKGMMYLEERRLVHRDLAARNVLVKSPNHVKITDFGLARLLEGDEKEYNADGGKMPIKWMALECIHYRKFTHQSDVWSYGVTIWELMTFGGKPYDGIPTREIPDLLEKGERLPQPPICTIDVYMVMVKCWMIDADSRPKFKELAAEFSRMARDPQRYLVIQGDDRMKLPSPNDSKFFQNLLDEEDLEDMMDAEEYLVPQAFNIPPPIYTSRTRIDSNRSEIGHSPPPAYTPMSGNQFVYQDGGFATQQGMPMPYRATTSTIPEAPVAQGATAEMFDDSCCNGTLRKPVAPHVQEDSSTQRYSADPTVFAPERNPRGELDEEGYMTPMHDKPKQEYLNPVEENPFVSRRKNGDLQALDNPEYHSASSGPPKAEDEYVNEPLYLNTFANALGSAEYMKNSVLSVPEKAKKAFDNPDYWNHSLPPRSTLQHPDYLQEYSTKYFYKQNGRIRPIVAENPEYLSEFSLKPGTMLPPPPYRHRNTVV
partner: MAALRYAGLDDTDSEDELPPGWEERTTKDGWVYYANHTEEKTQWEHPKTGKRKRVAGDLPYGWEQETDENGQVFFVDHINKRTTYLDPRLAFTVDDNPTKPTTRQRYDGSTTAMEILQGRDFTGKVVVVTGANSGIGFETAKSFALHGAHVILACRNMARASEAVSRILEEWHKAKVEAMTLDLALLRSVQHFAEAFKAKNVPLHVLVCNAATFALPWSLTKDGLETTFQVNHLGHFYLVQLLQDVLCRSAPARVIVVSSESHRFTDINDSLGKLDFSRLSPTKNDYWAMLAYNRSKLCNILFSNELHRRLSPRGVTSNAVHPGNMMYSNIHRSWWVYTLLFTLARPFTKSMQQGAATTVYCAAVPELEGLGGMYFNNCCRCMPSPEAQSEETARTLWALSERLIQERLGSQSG
B2: WW domain-containing oxidoreductase (Homo sapiens), Q9NZC7 (parent)
chain: B1 partner

Variants of: B1
Conditions: with wwox_human WWOX, Q9NZC7

Variant | effect of a mutation on the interaction
Y1035A;Y1301A | disrupting interaction

Variants of: B2
Conditions: with erbb4_mouse Erbb4, Q61527

Variant | effect of a mutation on the interaction
Y33R | disrupting interaction
